US20220056134A1 (Genentech, published 2022)

Experiments:
HER2-ECD (in house) [1] = biological target: HER2-ECD (in house) (UniProt P04626); assay: SPR (BIAcore T200), Fab captured on anti-Fab chip, HER2-ECD as analyte, 25 C, 1:1 model
HER2-ECD (in house) [2] = biological target: HER2-ECD (in house) (UniProt P04626); assay: SPR (refers to Table G3)
IL-13 (in-house) [3] = biological target: T1, IL-13 (in-house) (UniProt P35225 35-146, limits assumed); assay: SPR (BIAcore T200), Fab captured on anti-Fab chip, IL-13 as analyte, 25 C, 1:1 model
T1 construct: SPR analyte

IL-13 (in-house) [4] = biological target: T1, IL-13 (in-house); assay: SPR
IL-13 (in-house) [5] = biological target: T1, IL-13 (in-house); assay: SPR (BIAcore T200), Fab captured on anti-Fab chip, IL-13 as analyte; n.d. = binding was not detected
[6] = biological target: T2, MET-R Fc (R&D Systems, catalog number 8614-MT) (UniProt P08581 25-932); assay: SPR (BIAcore T200), Fab captured on anti-Fab chip, MET-R Fc as analyte, 25 C, 1:1 model
T2 construct: Bought reagent used as SPR analyte; not shown: Fc part of the bought fusion protein

[7] = biological target: T2, MET-R Fc (R&D Systems, catalog number …); assay: SPR (BIAcore T200), Fab captured on anti-Fab chip, MET-R Fc as analyte; n.d. = binding was not detected

Molecule | Kd (IL-13 (in-house) [3]) [nM] | koff (IL-13 (in-house) [3]) [s⁻¹] | kon (IL-13 (in-house) [3]) [M⁻¹ s⁻¹] | Kd [6] [nM] | koff [6] [s⁻¹] | kon [6] [M⁻¹ s⁻¹] | also measured
anti-HER2 Fab variant CDR H3 W95D | – | – | – | – | – | – | Kd (HER2-ECD (in house) [1]): 36.5 nM; koff (HER2-ECD (in house) [1]): 0.00294 s⁻¹; kon (HER2-ECD (in house) [1]): 80000 M⁻¹ s⁻¹; fold change of KD against the unmodified parent (HER2-ECD (in house) [2]): 30 fold
Parental anti-IL-13 Fab (lebrikizumab) (Fab, V domains shown, Tested as Fab) VH: EVTLRESGPALVKPTQTLTLTCTVSGFSLSAYSVNWIRQPPGKALEWLAMIWGDGKIVYNSALKSRLTISKDTSKNQVVLTMTNMDPVDTATYYCAGDGYYPYAMDNWGQGSLVTVSS VL: DIVLTQSPDSLSVSLGERATINCRASKSVDSYGNSFMHWYQQKPGQPPKLLIYLASNLESGVPDRFSGSGSGTDFTLTISSLQAEDVAVYYCQQNNEDPRTFGGGTKVEIK | 0.05 | 5e-05 | 1.17e+06 | – | – | – | –
anti-IL-13 Fab variant CDR L3 R96A (Fab, V domains shown, Fab; variable domains only; Kabat numbering) VH: EVTLRESGPALVKPTQTLTLTCTVSGFSLSAYSVNWIRQPPGKALEWLAMIWGDGKIVYNSALKSRLTISKDTSKNQVVLTMTNMDPVDTATYYCAGDGYYPYAMDNWGQGSLVTVSS VL: DIVLTQSPDSLSVSLGERATINCRASKSVDSYGNSFMHWYQQKPGQPPKLLIYLASNLESGVPDRFSGSGSGTDFTLTISSLQAEDVAVYYCQQNNEDPATFGGGTKVEIK | 0.5 | 0.00044 | 825000 | – | – | – | fold loss in binding affinity against the parental anti-IL-13 Fab (IL-13 (in-house) [4]): ~10 fold
anti-IL-13 Fab variant CDR L3 D94A (Fab, V domains shown, Fab; variable domains only; Kabat numbering) VH: EVTLRESGPALVKPTQTLTLTCTVSGFSLSAYSVNWIRQPPGKALEWLAMIWGDGKIVYNSALKSRLTISKDTSKNQVVLTMTNMDPVDTATYYCAGDGYYPYAMDNWGQGSLVTVSS VL: DIVLTQSPDSLSVSLGERATINCRASKSVDSYGNSFMHWYQQKPGQPPKLLIYLASNLESGVPDRFSGSGSGTDFTLTISSLQAEDVAVYYCQQNNEAPRTFGGGTKVEIK | 0.02 | 3e-05 | 1.24e+06 | – | – | – | –
anti-IL-13 Fab variant CDR H3 D95A:P99A (Fab, name in Kabat numbering, V domains shown, Fab; variable domains only; Kabat numbering) VH: EVTLRESGPALVKPTQTLTLTCTVSGFSLSAYSVNWIRQPPGKALEWLAMIWGDGKIVYNSALKSRLTISKDTSKNQVVLTMTNMDPVDTATYYCAGAGYYAYAMDNWGQGSLVTVSS VL: DIVLTQSPDSLSVSLGERATINCRASKSVDSYGNSFMHWYQQKPGQPPKLLIYLASNLESGVPDRFSGSGSGTDFTLTISSLQAEDVAVYYCQQNNEDPRTFGGGTKVEIK | – | – | – | – | – | – | binding result (IL-13 (in-house) [5]): no binding (tested: analyte up to 20 mM as printed)
anti-IL-13 Fab variant CDR L3 N92A (Fab, V domains shown, Fab; variable domains only; Kabat numbering) VH: EVTLRESGPALVKPTQTLTLTCTVSGFSLSAYSVNWIRQPPGKALEWLAMIWGDGKIVYNSALKSRLTISKDTSKNQVVLTMTNMDPVDTATYYCAGDGYYPYAMDNWGQGSLVTVSS VL: DIVLTQSPDSLSVSLGERATINCRASKSVDSYGNSFMHWYQQKPGQPPKLLIYLASNLESGVPDRFSGSGSGTDFTLTISSLQAEDVAVYYCQQNAEDPRTFGGGTKVEIK | 0.03 | 3e-05 | 1.03e+06 | – | – | – | –
anti-IL-13 Fab variant CDR H3 P99A (Fab, name in Kabat numbering, V domains shown, Fab; variable domains only; Kabat numbering) VH: EVTLRESGPALVKPTQTLTLTCTVSGFSLSAYSVNWIRQPPGKALEWLAMIWGDGKIVYNSALKSRLTISKDTSKNQVVLTMTNMDPVDTATYYCAGDGYYAYAMDNWGQGSLVTVSS VL: DIVLTQSPDSLSVSLGERATINCRASKSVDSYGNSFMHWYQQKPGQPPKLLIYLASNLESGVPDRFSGSGSGTDFTLTISSLQAEDVAVYYCQQNNEDPRTFGGGTKVEIK | 1.8 | 0.00269 | 1.5e+06 | – | – | – | –
anti-IL-13 Fab variant CDR H3 D95A (Fab, name in Kabat numbering, V domains shown, Fab; variable domains only; Kabat numbering) VH: EVTLRESGPALVKPTQTLTLTCTVSGFSLSAYSVNWIRQPPGKALEWLAMIWGDGKIVYNSALKSRLTISKDTSKNQVVLTMTNMDPVDTATYYCAGAGYYPYAMDNWGQGSLVTVSS VL: DIVLTQSPDSLSVSLGERATINCRASKSVDSYGNSFMHWYQQKPGQPPKLLIYLASNLESGVPDRFSGSGSGTDFTLTISSLQAEDVAVYYCQQNNEDPRTFGGGTKVEIK | 1.3 | 0.00111 | 882000 | – | – | – | –
anti-IL-13 Fab variant CDR L3 D94A:R96A (Fab, V domains shown, Fab; variable domains only; Kabat numbering; also called D94: R96A double substitution) VH: EVTLRESGPALVKPTQTLTLTCTVSGFSLSAYSVNWIRQPPGKALEWLAMIWGDGKIVYNSALKSRLTISKDTSKNQVVLTMTNMDPVDTATYYCAGDGYYPYAMDNWGQGSLVTVSS VL: DIVLTQSPDSLSVSLGERATINCRASKSVDSYGNSFMHWYQQKPGQPPKLLIYLASNLESGVPDRFSGSGSGTDFTLTISSLQAEDVAVYYCQQNNEAPATFGGGTKVEIK | 0.7 | 0.00037 | 528000 | – | – | – | fold loss in binding affinity against the parental anti-IL-13 Fab (IL-13 (in-house) [4]): ~10 fold
Parental anti-MET Fab (onartuzumab / 5D5) (Fab, V domains shown, Tested as Fab) VH: EVQLVESGGGLVQPGGSLRLSCAASGYTFTSYWLHWVRQAPGKGLEWVGMIDPSNSDTRFNPNFKDRFTISADTSKNTAYLQMNSLRAEDTAVYYCATYRSYVTPLDYWGQGTLVTVSS VL: DIQMTQSPSSLSASVGDRVTITCKSSQSLLYTSSQKNYLAWYQQKPGKAPKLLIYWASTRESGVPSRFSGSGSGTDFTLTISSLQPEDFATYYCQQYYAYPWTFGQGTKVEIK | – | – | – | < 0.05 | < 1e-05 | 179000 | –
anti-MET Fab variant CDR L3 Y91A (Fab, V domains shown, Fab; variable domains only) VH: EVQLVESGGGLVQPGGSLRLSCAASGYTFTSYWLHWVRQAPGKGLEWVGMIDPSNSDTRFNPNFKDRFTISADTSKNTAYLQMNSLRAEDTAVYYCATYRSYVTPLDYWGQGTLVTVSS VL: DIQMTQSPSSLSASVGDRVTITCKSSQSLLYTSSQKNYLAWYQQKPGKAPKLLIYWASTRESGVPSRFSGSGSGTDFTLTISSLQPEDFATYYCQQAYAYPWTFGQGTKVEIK | – | – | – | 0.8 | 6e-05 | 70000 | –
anti-MET Fab variant CDR L3 Y91A:Y94A (Fab, V domains shown, Fab; variable domains only; Kabat numbering) VH: EVQLVESGGGLVQPGGSLRLSCAASGYTFTSYWLHWVRQAPGKGLEWVGMIDPSNSDTRFNPNFKDRFTISADTSKNTAYLQMNSLRAEDTAVYYCATYRSYVTPLDYWGQGTLVTVSS VL: DIQMTQSPSSLSASVGDRVTITCKSSQSLLYTSSQKNYLAWYQQKPGKAPKLLIYWASTRESGVPSRFSGSGSGTDFTLTISSLQPEDFATYYCQQAYAAPWTFGQGTKVEIK | – | – | – | – | – | – | binding result [7]: no binding (tested: analyte up to 75 nM)
anti-MET Fab variant CDR L3 W96A (Fab, V domains shown, Fab; variable domains only; Kabat numbering) VH: EVQLVESGGGLVQPGGSLRLSCAASGYTFTSYWLHWVRQAPGKGLEWVGMIDPSNSDTRFNPNFKDRFTISADTSKNTAYLQMNSLRAEDTAVYYCATYRSYVTPLDYWGQGTLVTVSS VL: DIQMTQSPSSLSASVGDRVTITCKSSQSLLYTSSQKNYLAWYQQKPGKAPKLLIYWASTRESGVPSRFSGSGSGTDFTLTISSLQPEDFATYYCQQYYAYPATFGQGTKVEIK | – | – | – | 2.1 | 0.00017 | 84000 | –
anti-MET Fab variant CDR L3 P95A (Fab, V domains shown, Fab; variable domains only; Kabat numbering) VH: EVQLVESGGGLVQPGGSLRLSCAASGYTFTSYWLHWVRQAPGKGLEWVGMIDPSNSDTRFNPNFKDRFTISADTSKNTAYLQMNSLRAEDTAVYYCATYRSYVTPLDYWGQGTLVTVSS VL: DIQMTQSPSSLSASVGDRVTITCKSSQSLLYTSSQKNYLAWYQQKPGKAPKLLIYWASTRESGVPSRFSGSGSGTDFTLTISSLQPEDFATYYCQQYYAYAWTFGQGTKVEIK | – | – | – | < 0.06 | < 1e-05 | 153000 | –
anti-MET Fab variant CDR L3 Y92A (Fab, V domains shown, Fab; variable domains only; Kabat numbering) VH: EVQLVESGGGLVQPGGSLRLSCAASGYTFTSYWLHWVRQAPGKGLEWVGMIDPSNSDTRFNPNFKDRFTISADTSKNTAYLQMNSLRAEDTAVYYCATYRSYVTPLDYWGQGTLVTVSS VL: DIQMTQSPSSLSASVGDRVTITCKSSQSLLYTSSQKNYLAWYQQKPGKAPKLLIYWASTRESGVPSRFSGSGSGTDFTLTISSLQPEDFATYYCQQYAAYPWTFGQGTKVEIK | – | – | – | 1.1 | 0.00019 | 172000 | –
anti-MET Fab variant CDR L3 Y94A (Fab, V domains shown, Fab; variable domains only; Kabat numbering) VH: EVQLVESGGGLVQPGGSLRLSCAASGYTFTSYWLHWVRQAPGKGLEWVGMIDPSNSDTRFNPNFKDRFTISADTSKNTAYLQMNSLRAEDTAVYYCATYRSYVTPLDYWGQGTLVTVSS VL: DIQMTQSPSSLSASVGDRVTITCKSSQSLLYTSSQKNYLAWYQQKPGKAPKLLIYWASTRESGVPSRFSGSGSGTDFTLTISSLQPEDFATYYCQQYYAAPWTFGQGTKVEIK | – | – | – | 5.7 | 0.00065 | 115000 | –
anti-MET Fab variant CDR L3 Y91A:W96A (Fab, V domains shown, Fab; variable domains only; Kabat numbering) VH: EVQLVESGGGLVQPGGSLRLSCAASGYTFTSYWLHWVRQAPGKGLEWVGMIDPSNSDTRFNPNFKDRFTISADTSKNTAYLQMNSLRAEDTAVYYCATYRSYVTPLDYWGQGTLVTVSS VL: DIQMTQSPSSLSASVGDRVTITCKSSQSLLYTSSQKNYLAWYQQKPGKAPKLLIYWASTRESGVPSRFSGSGSGTDFTLTISSLQPEDFATYYCQQAYAYPATFGQGTKVEIK | – | – | – | – | – | – | binding result [7]: no binding (tested: analyte up to 75 nM)
